Reference: paper PMC2995306 (Science (New York, N.Y.), 2009)
Where two headings read alike, the source gives them in different places.

Tests used:
[1] = target: the molecule itself; assay: crystal structure
[2] = target: the molecule itself

Row | Protein | stoichiometry N [1] | stoichiometry N [2]
1 | rhesus rotavirus (RRV, serotype G3) VP7 trimer, recombinant (natural protein, UniProt P12476 51-326, looked up, N-linked glycan at Asn69) QNYGINLPITGSMDTAYANSTQEETFLTSTLCLYYPTEAATEINDNSWKDTLSQLFLTKGWPTGSVYFKEYTDIASFSVDPQLYCDYNVVLMKYDATLQLDMSELADLILNEWLCNPMDITLYYYQQTDEANKWISMGSSCTIKVCPLNTQTLGIGCLTTDTATFEEVATAEKLVITDVVDGVNHKLDVTTATCTIRNCKKLGPRENVAVIQVGGSDVLDITADPTTAPQTERMMRINWKKWWQVFYTVVDYVNQIIQAMSKRSRSLNSAAFYYRI | 3 | 
2 | disulfide-linked variant of the VP7 trimer (cysteines substituted for Thr276 and Gln305) (natural protein, rhesus rotavirus (RRV, serotype G3), UniProt P12476 51-326, looked up, intersubunit disulfide between the cysteines at 276 and 305) QNYGINLPITGSMDTAYANSTQEETFLTSTLCLYYPTEAATEINDNSWKDTLSQLFLTKGWPTGSVYFKEYTDIASFSVDPQLYCDYNVVLMKYDATLQLDMSELADLILNEWLCNPMDITLYYYQQTDEANKWISMGSSCTIKVCPLNTQTLGIGCLTTDTATFEEVATAEKLVITDVVDGVNHKLDVTTATCTIRNCKKLGPRENVAVIQVGGSDVLDITADPCTAPQTERMMRINWKKWWQVFYTVVDYVNCIIQAMSKRSRSLNSAAFYYRI |  | 3
